Series [1] deals with the molecule itself. The series is described as follows: cross-linking; 15 μM αBc or Hsp27 incubated with 15 or 75 μM DA in 50 mM phosphate, 150 mM NaCl, pH 7.4, 24 h, 37 °C, aerobic; excess DAox removed (10 kDa filter); SDS-PAGE with DTT and boiling.
Series [2] deals with the molecule itself. Kind of series: negative-stain transmission electron microscopy; 30 μM αBc or Hsp27 incubated with 0 or 150 μM DAox; particle diameters measured.
Series [3] concerns the molecule itself. Kind of series: cross-linking; lysine-dimethylated and non-methylated sHsps reacted with a 0, 1, 5, 7.5, 10 or 20 molar excess of DA, 37 °C, 24 h, 50 mM phosphate buffer, pH 7.4; SDS-PAGE, monomer band quantified.

B1: oxidized dopamine-modified αB-crystallin (natural protein, human, UniProt P02511 1-175, looked up)
chain: MDIAIHHPWIRRPFFPFHSPSRLFDQFFGEHLLESDLFPTSTSLSPFYLRPPSFLRAPSWFDTGLSEMRLEKDRFSVNLDVKHFSPEELKVKVLGDVIEVHGKHEERQDEHGFISREFHRKYRIPADVDPLTITSSLSSDGVLTVNGPRKQVSGPERTIPITREEKPAVTAAPKK
modifications: modified and covalently cross-linked by oxidized dopamine (DAox); lysine residues involved in the cross-links; sites not mapped
notes: αB-crystallin (HspB5), human small heat-shock protein; monomeric subunit mass 20.2 kDa; same protein as m1; Made at several molar ratios of αBc to DA (1:1, 1:5, 1:10, 1:20, 1:30); All ratios are kept as one molecule; the ratio is named in each row; also called αBc:DAox; DAox-modified αBc
Turning to B1, the binding result in series [1] is reported as “binds”.

B2: αB-crystallin (natural protein, human, UniProt P02511 1-175, looked up)
chain: B1 chain
notes: αB-crystallin (HspB5), human small heat-shock protein; monomeric subunit mass 20.2 kDa; Lys174 and Lys175 at the extreme C-terminus; Heterogeneous large oligomer in solution; also called HspB5; native αBc; source: expressed and purified as previously described [9,40,41]
B2: the binding result in series [2] is listed as “binds”.

B3: methylated αBc reacted with DAox (natural protein, human, UniProt P02511 1-175, looked up)
chain: B1 chain
modifications: dimethylation of all lysine residues (and the amino terminus), confirmed by mass spectrometry; then modified by oxidized dopamine (DAox)
notes: αB-crystallin (HspB5), human small heat-shock protein; same protein as m1; Reacted with a 0, 1, 5, 7.5, 10 or 20 molar excess of DA; also called lysine-dimethylated αBc
As to B3, the binding result in series [3] is on record as “binds”.

The values above are taken from article PMC8037807, “The Effect of Oxidized Dopamine on the Structure and Molecular Chaperone Function of the Small Heat-Shock Proteins, αB-Crystallin and Hsp27” (International Journal of Molecular Sciences, 2021).
